Measurements taken from patent publication US20230303695A1 (SHANGHAI XBH BIOTECHNOLOGY, published 2023).

T1: D1 domain of IGSF8 (recombinant protein) (human, UniProt Q969P0 28-149, limits assumed)
T1 construct: domain: D1 (Ig V-set domain); also called Ig V-set domain of IGSF8
T1 sequence (looked up): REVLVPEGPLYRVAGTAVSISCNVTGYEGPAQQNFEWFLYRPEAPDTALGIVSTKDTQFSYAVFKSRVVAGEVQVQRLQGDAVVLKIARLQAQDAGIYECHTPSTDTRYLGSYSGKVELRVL

T2: IGSF8 extracellular domain (ED) (Homo sapiens (Human), UniProt Q969P0 28-579)
T2 construct: also called IGSF8 ECD
T2 sequence: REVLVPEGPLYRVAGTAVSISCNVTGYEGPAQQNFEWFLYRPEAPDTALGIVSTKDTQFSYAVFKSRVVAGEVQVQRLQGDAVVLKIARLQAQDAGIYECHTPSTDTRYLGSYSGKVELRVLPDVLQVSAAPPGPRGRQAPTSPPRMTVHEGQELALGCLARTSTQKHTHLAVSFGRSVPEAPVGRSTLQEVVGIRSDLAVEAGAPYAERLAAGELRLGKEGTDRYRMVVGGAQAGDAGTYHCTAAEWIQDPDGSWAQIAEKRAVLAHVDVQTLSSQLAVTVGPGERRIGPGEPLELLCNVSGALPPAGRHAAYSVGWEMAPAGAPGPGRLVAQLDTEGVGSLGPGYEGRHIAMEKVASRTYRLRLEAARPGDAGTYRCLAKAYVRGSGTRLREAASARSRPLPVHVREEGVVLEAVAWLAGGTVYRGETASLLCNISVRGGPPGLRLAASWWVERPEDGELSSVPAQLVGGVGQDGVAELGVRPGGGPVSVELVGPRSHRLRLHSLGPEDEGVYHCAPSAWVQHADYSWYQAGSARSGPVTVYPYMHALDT

T3: human IGSF8 expressed on the cell surface (human, UniProt Q969P0 28-613)
T3 construct: whole, on cells; also called human IGSF8 on CT26 cells; IGSF8 on MC38 cells
T3 sequence (looked up): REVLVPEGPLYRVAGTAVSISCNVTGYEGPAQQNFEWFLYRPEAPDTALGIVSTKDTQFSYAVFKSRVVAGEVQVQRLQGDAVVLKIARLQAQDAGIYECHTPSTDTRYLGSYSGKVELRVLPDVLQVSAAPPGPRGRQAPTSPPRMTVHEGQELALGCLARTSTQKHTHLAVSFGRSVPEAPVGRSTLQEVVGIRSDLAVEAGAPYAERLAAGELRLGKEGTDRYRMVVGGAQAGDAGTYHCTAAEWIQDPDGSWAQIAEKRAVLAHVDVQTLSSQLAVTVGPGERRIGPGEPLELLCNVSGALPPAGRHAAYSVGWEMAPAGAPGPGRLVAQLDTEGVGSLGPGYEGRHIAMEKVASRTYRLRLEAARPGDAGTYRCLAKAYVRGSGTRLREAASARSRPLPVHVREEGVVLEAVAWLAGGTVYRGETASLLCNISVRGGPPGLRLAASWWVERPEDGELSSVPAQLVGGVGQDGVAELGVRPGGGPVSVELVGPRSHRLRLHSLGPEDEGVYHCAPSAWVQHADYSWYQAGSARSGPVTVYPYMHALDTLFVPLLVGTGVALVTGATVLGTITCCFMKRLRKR

T4: full-length IGSF8 (recombinant antigen of the SPR screen; IGSF8 target antigen of the phage panning) (human, UniProt Q969P0 28-579, limits assumed)
T4 sequence (looked up): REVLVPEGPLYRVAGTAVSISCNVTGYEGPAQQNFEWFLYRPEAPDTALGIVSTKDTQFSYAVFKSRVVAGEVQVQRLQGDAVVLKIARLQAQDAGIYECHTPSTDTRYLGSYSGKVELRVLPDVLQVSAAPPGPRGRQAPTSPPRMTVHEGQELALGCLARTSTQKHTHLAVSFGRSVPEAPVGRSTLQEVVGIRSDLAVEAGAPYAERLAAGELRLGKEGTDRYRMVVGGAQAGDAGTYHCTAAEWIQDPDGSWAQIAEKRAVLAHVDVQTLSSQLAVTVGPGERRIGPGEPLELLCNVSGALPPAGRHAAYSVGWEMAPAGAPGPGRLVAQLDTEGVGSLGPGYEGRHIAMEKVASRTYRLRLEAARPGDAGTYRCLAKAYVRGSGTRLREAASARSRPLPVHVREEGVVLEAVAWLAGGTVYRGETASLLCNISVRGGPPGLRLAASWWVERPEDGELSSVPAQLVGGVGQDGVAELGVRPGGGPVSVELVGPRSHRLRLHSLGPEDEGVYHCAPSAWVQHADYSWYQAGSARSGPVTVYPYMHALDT

T5: recombinant human IGSF8 extracellular domain tagged by a human Fc region (IGSF8-hFc) (human, UniProt Q969P0 28-579, biotin label in Examples 17, 18 and 28 (site not given))
T5 construct: also called IGSF8-Fc fusion protein; IGSF8-hFc-biotin; not shown: human Fc region
T5 sequence: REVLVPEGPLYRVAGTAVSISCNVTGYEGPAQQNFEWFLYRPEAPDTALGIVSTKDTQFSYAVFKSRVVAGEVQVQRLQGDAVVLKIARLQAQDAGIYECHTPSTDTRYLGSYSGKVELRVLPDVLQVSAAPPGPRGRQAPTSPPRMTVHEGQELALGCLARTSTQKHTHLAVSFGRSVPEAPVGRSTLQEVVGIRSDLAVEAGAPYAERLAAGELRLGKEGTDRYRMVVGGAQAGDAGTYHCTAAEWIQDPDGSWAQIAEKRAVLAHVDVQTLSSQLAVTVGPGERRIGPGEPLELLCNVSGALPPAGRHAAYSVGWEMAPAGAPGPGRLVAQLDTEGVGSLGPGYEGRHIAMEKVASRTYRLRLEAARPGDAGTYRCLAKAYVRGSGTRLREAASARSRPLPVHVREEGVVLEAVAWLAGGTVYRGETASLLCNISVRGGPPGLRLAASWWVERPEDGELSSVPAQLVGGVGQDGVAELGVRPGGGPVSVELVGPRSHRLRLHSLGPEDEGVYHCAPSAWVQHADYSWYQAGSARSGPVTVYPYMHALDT


Key:
[1] = target: T1, D1 domain of IGSF8 (recombinant protein); experiment: SPR, Biacore T100
[2] = target: T2, IGSF8 extracellular domain (ED); experiment: ELISA on IGSF8 extracellular domain
[3] = target: T3, human IGSF8 expressed on the cell …; experiment: FACS on CT26 cells with forced surface expression of human IGSF8
Protocol: For antibody binding assays based on cell-expressed antigens, 100,000 cells overexpressing the antigen (either the full-length IGSF8 or the D1 domain thereof) were washed with PBS buffer containing 2% FBS, and then incubated with 100 μL of antibodies or IgG of different concentrations for 30 minutes on ice. Cells were then washed twice with wash buffer, and incubated with 100 μL of 1:100 anti-human Fc-PE antibody for 15 minutes on ice. Cells were washed twice with wash buffer and analyzed on a FACS analyzer (CytoFlex, Beckman).

[4] = target: T4, full-length IGSF8 (recombinant antigen …); experiment: SPR, Biacore T100
[5] = target: T5, recombinant human IGSF8 extracellular …; experiment: FACS, biotin-labelled IGSF8-hFc on CT26 cells expressing the KIR, MFI normalized to Thy1.1
Protocol: For this experiment, different human KIR receptors (KIR2DL1, KIR2DL2, KIR2DL3, KIR2DL4, KIR2DL5A, KIR2DL5B, KIR3DL1, KIR3DL2, KIR3DL3) were first cloned into a proprietary lentiviral vector containing a thy1.1 tag (FIG. 17A). Then mouse CT26 cells, were transducted by these lentiviral constructs, and IGSF8 binding was tested with biotin-labelled recombinant IGSF8 hFc fusion protein. The mean fluorescence intensity (MFI) of IGSF8 binding to different CT26 cells were normalized by the expression of different KIRs on CT26 cells using an anti-thy1.1 mAb (Biolegend) via flow cytometry.
KLRC1 also contains a ITIM motif in its intracellular domain, and was known to be a inhibitory receptor of NK or CD8⁺ T cells as part of a heterodimer with KLRD1 on the cell surface. […] Specifically, 100,000 CT26 cells overexpressing the antigens (KIRs or KLRs) were washed with PBS buffer containing 2% FBS, and incubated with 100 μL IGSF8 recombinant proteins or antibodies (5 μg/mL) for 30 minutes on ice. Cells were then washed twice with wash buffer, and incubated with 100 μL of 1:100 anti-human Fc-PE antibody for 15 minutes on ice. Cells were washed twice with wash buffer and analyzed on a FACS analyzer (CytoFlex, Beckman). In these experiments, the mean fluorescence intensity (MFI) of IGSF8 binding to different CT26 cells were normalized by the expression of different KLRs on CT26 cells using an anti-thy1.1 mAb via flow cytometry.

Binder | Kd [1] | binding result [2] | Kd [4] | other results
Antibody C39 (8G4) (antibody, V domains shown, also called mab-8G4 (C39)) VH: EVQLLESGGGLVQPGGSLRLSCAASGFTFSSYAMSWVRQAPGKGLEWVSGITGSGGSTYYADSVKGRFTISRDNSKNTLYLQMNSLRAEDTAVYYCARSRNLDSWGQGTLVTVSS VL: DIQLTQSPSSLSASVGDRVTITCRASQSIHNYLNWIQQTPGKAPKLLVFAASTLQRGVPPRYSGRGSGTEFTLTISSLQPEDFATYYCQQSYTTPLTFGGGTKVEIR | < 50 nM | – | – | –
Antibody C5 (antibody, V domains shown, also called anti-IGSF8 C5) VH: EVQLVQSGGGLVQPGGSLRLSCAASGFTFSRYRMAWVRQAPGKGLEWVSNITRSGGVTRYADSVKGRFTISRDNSKNTLYLQMNSLRAEDTAVYYCARDPNRVTAISSHYGMDVWGKGTTVTVSS VL: EIVLTQSPSTLSASVGDRVTISCRASQSISRWLAWYQQKPGQAPRLLIYDASNRATGVPARFSVSGSETDSTLTISSLEPEDFAMYYCQQRSNWPPMYTFGQGTKLEIKR | – | binds | – | –
Antibody C6 (antibody, V domains shown, also called anti-IGSF8 C6) VH: EVQLVESGGGLVQPGGSLRLSCAASGFTFSPYRMHWVRQAPGKGLEWVSRINPSGGRTWYADSVKGRFTISRDNSKNTLYLQMNSLRAEDTAVYYCARDATGRHYNGMDVWGQGTMVTVSS VL: DIQMTQSPSTLSASVGDRVTITCRASQSINKWLAWYQQKPGKAPKLLIYKASTLESGVPSRFSGSGSGTDFTLTINSLQPEDFATYYCQQSHSAPWTFGQGTKVEIER | – | binds | – | –
Antibody C37 (3F12) (antibody, V domains shown, also called mAb-3F12(C37)) VH: EVQLVQSGGGLVKPGGSLRLSCAASGFTFSSYSMNWVRQAPGKGLEWVSSISSSSSYIYYADSVKGRFTISRDNAKNSLYLQMNSLRAEDTAVYYCAGRQYDFWSGWDWFDPWGQGTLVTVSS VL: DIQLTQSPSSLSASVGDRVTITCRASQSISTYLNWYQQKPGKAPKLLIHDASILQSGVPSRFSGSGSGTDFTLTISSLQAEDFATYYCQQSYSTLPYTFGQGTKVEIK | < 50 nM | – | 22.5 nM | EC50 [3]: 5.93 nM
Antibody C34 (1D7) (antibody, V domains shown, also called mAb-1D7 (C34)) VH: EVQLLESGGGLVQPGGSLRLSCAVSGFTFNSFAMSWVRQAPGKGLEWVSAISGSGGGTYYADSVKGRFTISRDNSKNTLYLQMNSLRAEDTAIYYCAREVDGYGAFDIWGQGTMVTVSS VL: DIQMTQSPSSLSASVGNRVTITCRASQTIRNYLNWYQQKPGEAPKVLIYGASTLQSGVPSRFSASGSGTDFTLTISSLQPDDFATYHCQQTFSDPYTFGQGTKVEIK | < 50 nM | – | 2.12 nM | –
KIR2DL2 expressed on CT26 cells (receptor, human, UniProt P43627 22-348, looked up, whole, on cells) HEGVHRKPSLLAHPGRLVKSEETVILQCWSDVRFEHFLLHREGKFKDTLHLIGEHHDGVSKANFSIGPMMQDLAGTYRCYGSVTHSPYQLSAPSDPLDIVITGLYEKPSLSAQPGPTVLAGESVTLSCSSRSSYDMYHLSREGEAHECRFSAGPKVNGTFQADFPLGPATHGGTYRCFGSFRDSPYEWSNSSDPLLVSVIGNPSNSWPSPTEPSSKTGNPRHLHILIGTSVVIILFILLFFLLHRWCSNKKNAAVMDQESAGNRTANSEDSDEQDPQEVTYTQLNHCVFTQRKITRPSQRPKTPPTDIIVYAELPNAESRSKVVSCP | – | – | – | binding result [5]: no binding
